Consider 5 molecules from US11674950B2, “Methods determining and treating cellular resistance to ADP-rtbosylating toxin” (priority 2017, dated 2023).

The test system of one data set is DPH1. The data set is described as follows: Quantitative RT-PCR and Western blot for DPH1. The format is cell-based, human.
The next data set deals with eEF2. The data set is described as follows: In vitro ADP-ribosylation assay in cell lysates with biotin-NAD+. Type of data set: biochemical, human. How it is done:
A biochemical assay was next performed to test the ability of tagraxofusp to catalyze ADP-ribosylation in cellular lysates in the presence of exogenous biotin-tagged […] (NAD) as a source of ADP-ribose.
To determine the biochemical mechanism of SL-401 resistance and restoration of sensitivity upon non-cytotoxic treatment with azacitidine, an in vitro ADP-ribosylation assay was developed to perform lysates harvested from human leukemia cells. Briefly, 50 μg of cell lysates were harvested and mixed with 5 uM NAD+-Biotin (R&D Systems; 4670-500-01), in the presence or absence of 100 ng of SL-401 (or DT) in 35 uL of reaction buffer containing 20 mM Tris-HCl pH 7.4, 1 mM EDTA, and 50 mM DTT. The mixture is incubated for 15 minutes at room temperature and then the reaction is halted by boiling in SDS loading buffer. An SDS polyacrylamide gel is run and proteins are transferred to a PVDF membrane as in a Western blot. Protein levels are determined by traditional western blot. ADP-ribosylation of target proteins is detected by streptavidin-HRP (Abcam ab7403). […] Top blot is ADP-ribose, presumably on eEF2 (band is at same position as eEF2 protein detected by antibody); next, are levels of eEF2, DPH1, and beta-actin protein.

For a further data set, the system named is CAL1 and THP1 cells. The data set is described as follows: Short-term cytotoxicity of azacitidine in parental and SL-401 resistant cells. The format is cell-based, human. The procedure:
Next, it was tested if azacitidine cooperated with tagraxofusp in AML and BPDCN cells. First, given that azacitidine acts as a cytotoxic chemotherapy at higher doses, experiments were performed to determine whether tagraxofusp-resistant cells were more sensitive to short-term treatment, similar to what was described above (FIGS. 6-8).

Data set [1] deals with BPDCN patient-derived xenografts. The format is in vivo, mouse. Particulars: for time to progression of peripheral blood leukemia burden: two cycles.
A further data set relates to DPH1 locus. The data set is described as follows: Bisulfite pyrosequencing of DPH1 locus CpG sites. The format is cell-based, human. Particulars: azacitidine 300 nM, 2 days on/2 days off over 2 weeks; resistant cells. How it is done: DPH1 expression is known to be regulated by DNA methylation and sensitivity to Pseudomonas exotoxin A was previously shown to be modulated by CpG methylation in the DPH1 locus. To test whether loss of DPH1 is mediated by DNA methylation, bisulfite pyrosequencing of the DPH1 locus in CpG islands (30 individual CpG sites) was performed by EpigenDx analysis (available on the World Wide Web at epigendx.com/d/service/pyrosequencing/) and the % methylated cytosine at each CpG site was quantitated. This analysis was performed in THP1 parental and 2 SL-401 resistant subclones, and CAL1 parental and 2 SL-401 resistant subclones. Data plotted in FIG. 12 are from THP1 cells, and are representative of CAL1. […] Given this finding, it was believed that 5-azacitidine, a DNA methyltransferase inhibitor or “DNA hypomethylating agent” can reverse the aberrant DPH1 hypermethylation and restore DPH1 expression. The parental and resistant cells were also treated with non-cytotoxic, low doses of azacitidine, so called “epigenetic dosing” (300 nM, 2 days on/2 days off) over 2 weeks to determine if the hypermethylation was reversible by DNA methyltransferase inhibition.

In data set [2] the test system is CAL1, SHI1, and THP1 parental and tagraxofusp-resistant cells. Put plainly: MTT viability after conventional chemotherapy (cytarabine, vincristine). Type of data set: cell-based, human. Particulars: SL-401 resistant vs parental CAL1, SHI1, THP1. How it is done: CAL1, SHI1, and THP1 parental and tagraxofusp-resistant cells were tested in MTT viability assays after exposure to increasing doses of cytarabine (AraC) or vincristine (VCR).

The test system of data set [3] is mouse models of human leukemia. Particulars: in vivo; cited from earlier work.
Data set [4] deals with IL3R (e.g., CD123) positive AML cell lines and primary leukemia cells. Particulars: cited from earlier work.
Data set [5] deals with THP1 human AML cells. The data set is described as follows: In situ histochemical ADP-ribosylation assay. Type of data set: cell-based. Particulars: resistant vs parental THP1.
Data set [6] concerns THP1 human AML cells. The data set is described as follows: Single cell flow cytometric ADP-ribosylation assay. The format is cell-based. Particulars: resistant vs parental THP1. How it is done:
THP1 human AML cells are shown that are parental SL-401 sensitive or SL-401 resistant.
For example, in another embodiment, a flow ADP ribosylation assay may be used to measure the functional activity of the entire diphthamide synthesis pathway (FIG. 20). […] The cells were stained with antibodies (e.g., CD45-APC, CD123-PE) at concentration of 1:100, incubated for 30 min at 4° C., and then washed with FACS buffer 5 minutes. The cells were fixed with 3% paraformaldehyde (PFA), incubated for 20 min at RT, and washed with PBS for 5 minutes. The cells were permeabilized with Saponin (1:10 in H2O, BD Biosciences-“Perm/Wash” solution) for 20 min at 4° C., washed with PBS for 5 minutes, and applied with endogenous Streptavidin block (BD Biosciences) for 20 min at RT. The cells were then washed with PBS for 5 minutes and applied with endogenous Biotin block (BD Biosciences) for 20 min at RT. The cells were then washed with PBS for 5 minutes and applied with protein block for 30 min at RT. The cells were washed twice with FACS buffer. Each wash was for 5 minutes. SL-401/biotin solution was added to the samples and the samples was incubated for 30 min at RT. […] The cells were washed 5 minutes in FACS buffer, resuspended in 300 μl FACS buffer and level of the ADP was detected with the flow assay.

For data set [7] the following is noted: rodents and monkeys; cited from earlier work.
For data set [8], the system named is parental or tagraxofusp-resistant CAL1 cells. The data set is described as follows: Confocal microscopy of internalization of fluorescently tagged SL-401. As to conditions: 30-60 minutes after exposure, resistant vs parental cells. Type of data set: cell-based, human.
The mark [9] stands for this setting: 14 days from initiation of treatment, vs vehicle.

On to `Nc1ncn([C@@H]2O[C@H](CO)[C@@H](O)[C@H]2O)c(=O)n1` [azacitidine, 5-azacytidine], for which the “DPH1 protein levels after azacitidine” value in the data set on DPH1 (Western blot, resistant THP1 clones) is listed as “partially or fully restored”. For the same molecule, the “DPH1 mRNA expression” value in the data set with DPH1 (azacitidine 300 nM, 2 days on/2 days off over 2 weeks, quantitative RT-PCR) is on record as “partially restored mRNA expression”. Further, the “tagraxofusp-mediated ADP ribosylation after azacitidine” value in the data set on eEF2 (long-term azacitidine-treated resistant THP1 cells) is reported as “complete restoration of tagraxofusp-mediated ADP ribosylation activity”. For the same molecule, the “azacitidine dose response, resistant vs parental” value in the data set with CAL1 and THP1 cells (CAL1 parental and 3 SL-401 resistant subclones) is given as “increased sensitivity in resistant cells”. Also, the “azacitidine cytotoxicity, resistant vs parental” value in the data set with CAL1 and THP1 cells (THP1, short-term (72 hour), cytotoxic doses) was “more sensitive to cytotoxic doses of azacitidine than parental cells”. Moreover, the “time to progression of peripheral blood leukemia burden” value in [1] (four-arm study) is “prolonged the time to progression of peripheral blood leukemia burden”. For the same molecule, in the data set with DPH1 locus, the “DPH1 CpG DNA methylation” value was “reduction in the DPH1 CpG DNA hypermethylation”.
`Nc1ccn([C@@H]2O[C@H](CO)[C@@H](O)[C@@H]2O)c(=O)n1` [cytarabine]: the “sensitivity of SL-401 resistant cells to chemotherapy” value in data set [2] is recorded as “more sensitive to chemotherapy compared to the parental cells”.
Still for that read-out and setting: under `CC[C@]1(O)C[C@H]2CN(CCc3c([nH]c4ccccc34)[C@@](C(=O)OC)(c3cc4c(cc3OC)N(C=O)[C@H]3[C@@](O)(C(=O)OC)[C@H](OC(C)=O)[C@]5(CC)C=CCN6CC[C@]43[C@@H]65)C2)C1` [vincristine] stands “more sensitive to chemotherapy compared to the parental cells”.

B1: tagraxofusp (protein)
chain: MGADDVVDSSKSFVMENFSSYHGTKPGYVDSIQKGIQKPKSGTQGNYDDDWKGFYSTDNKYDAAGYSVDNENPLSGKAGGVVKVTYPGLTKVLALKVDNAETIKKELGLSLTEPLMEQVGTEEFIKRFGDGASRVVLSLPFAEGSSSVEYINNWEQAKALSVELEINFETRGKRGQDAMYEYMAQACAGNRVRRSVGSSLSCINLDWDVIRDKTKTKIESLKEHGPIKNKVISESPNKTVSEEKAKQYLEEFHQTALEHPELSELKTVTGTNPVFAGANYAAWAVNVAQVIDSETADNLEKTTAALSILPGIGSVMGIADGAVHHNTEEIVAQSIALSSLMVAQAIPLVGELVDIGFAAYNFVESIINLFQVVHNSYNRPAYSPGHKTRPHMAPMTQTTSLKTSWVNCSNMIDEIITHLKQPPLPLLDFNNLNGEDQDILMENNLRRPNLEAFNRAVKSLQNASAIESILKNLLPCLPLATAAPTRHPIHIKDGDWNEFRRKLTFYLKTLENAQAQQTTLSLAW
As for B1, in data set [3], the anti-tumor efficacy result is “in vivo anti-tumor efficacy”. For the same molecule, the ADP-ribosylation in lysates entry in the data set with eEF2 (parental cells) was “caused ADP-ribosylation of a single protein”; with eEF2 (tagraxofusp-resistant cells), “unable to catalyze ADP-ribosylation of any proteins in the lysate”. Besides, the cytotoxicity entry in data set [4] was “potently and selectively cytotoxic”. For the same molecule, the “SL-401-dependent ADP ribosylation activity” value in the data set on THP1 human AML cells [5] and in the data set with THP1 human AML cells [6] was “diminished in the SL-401 resistant cells” each time. Further, the safety result in data set [7] was “Safety was shown at therapeutically active doses”. In data set [1] (setting [9]), the spleen size result is reported as “reduction in splenomegaly”. Further, the splenic infiltration entry in data set [1] (setting [9]) is recorded as “decreased splenic infiltration of human BPDCN cells”. Besides, in data set [1] (four-arm study, n=10 mice per arm), the “mice remaining at 200 days” value is given as “one”. In data set [1] (one cycle, daily for 5 days, three PDXs combined, vehicle 12 days), the progression-free survival was 48 days. In addition, the overall survival in data set [1] (one cycle, daily for 5 days, three PDXs combined, vehicle 35 days) was found to be 71 days. In addition, the “reduction of leukemia burden vs vincristine/dexamethasone” value in [1] (peripheral blood flow cytometry, most animals) is “longer sustained reduction in human BPDCN leukemia burden”. For the same molecule, the “residual CD45+CD123+ leukemia at 200 days” value in [1] (peripheral blood, spleen, and bone marrow) is “detectable leukemia cells in spleen and bone marrow”. Further, in [1] (second cycle at progression), the “effect of a second cycle” value was “effective”. The “response of PDX cohorts” value in data set [1] (three cohorts, 100 ug/kg/day intraperitoneally x5 days) is “prolonged progression-free and overall survival”. For the same molecule, in data set [1] (four-arm study), the “time to progression of peripheral blood leukemia burden” value is “prolonged the time to progression of peripheral blood leukemia burden”.

B2: Tagraxofusp-APC: APC-tagged, fluorescently labeled tagraxofusp used for confocal microscopy (conjugate)
chain: MGADDVVDSSKSFVMENFSSYHGTKPGYVDSIQKGIQKPKSGTQGNYDDDWKGFYSTDNKYDAAGYSVDNENPLSGKAGGVVKVTYPGLTKVLALKVDNAETIKKELGLSLTEPLMEQVGTEEFIKRFGDGASRVVLSLPFAEGSSSVEYINNWEQAKALSVELEINFETRGKRGQDAMYEYMAQACAGNRVRRSVGSSLSCINLDWDVIRDKTKTKIESLKEHGPIKNKVISESPNKTVSEEKAKQYLEEFHQTALEHPELSELKTVTGTNPVFAGANYAAWAVNVAQVIDSETADNLEKTTAALSILPGIGSVMGIADGAVHHNTEEIVAQSIALSSLMVAQAIPLVGELVDIGFAAYNFVESIINLFQVVHNSYNRPAYSPGHKTRPHMAPMTQTTSLKTSWVNCSNMIDEIITHLKQPPLPLLDFNNLNGEDQDILMENNLRRPNLEAFNRAVKSLQNASAIESILKNLLPCLPLATAAPTRHPIHIKDGDWNEFRRKLTFYLKTLENAQAQQTTLSLAW
Turning to B2, the drug internalization entry in data set [8] was “internalized equally in resistant and parental cells”.
